We go through 2 molecules from PMC3737549.

This assay concerns the target RORγ-mCherry (UniProt P51450).
UniProt P51450, sequence (P51450 whole entry): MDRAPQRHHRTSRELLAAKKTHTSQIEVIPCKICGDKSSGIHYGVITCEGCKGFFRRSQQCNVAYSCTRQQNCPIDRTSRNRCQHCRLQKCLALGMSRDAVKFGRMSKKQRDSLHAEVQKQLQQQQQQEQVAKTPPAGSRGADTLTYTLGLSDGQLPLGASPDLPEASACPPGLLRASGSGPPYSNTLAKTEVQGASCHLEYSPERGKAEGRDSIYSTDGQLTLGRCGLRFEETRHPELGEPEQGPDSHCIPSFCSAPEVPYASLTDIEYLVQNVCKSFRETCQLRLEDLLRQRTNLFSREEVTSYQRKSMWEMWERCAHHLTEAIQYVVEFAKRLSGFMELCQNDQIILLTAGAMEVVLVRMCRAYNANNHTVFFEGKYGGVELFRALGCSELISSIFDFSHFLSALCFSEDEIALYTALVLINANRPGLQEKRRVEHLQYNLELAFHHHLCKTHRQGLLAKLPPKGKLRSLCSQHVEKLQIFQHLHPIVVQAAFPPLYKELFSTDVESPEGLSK

B1: Myc-Prox1 PΔN106 (domain or fragment)
chain: TEPSFQASGLSSTGSEVHQEDICSNSSRDSPPECLSPFGRPTMSQFDVDRLCDEHLRAKRARVENIIRGMSHSPSVALRGNENEREMAPQSVSPRESYRENKRKQKLPQQQQQSFQQLVSARKEQKREERRQLKQQLEDMQKQLRQLQEKFYQVYDSTDSENDEDGDLSEDSMRSEILDARAQDSVGRSDNEMCELDPGQFIDRARALIREQEMAENKPKREGSNKERDHGPNSLQPEGKHLAETLKQELNTAMSQVVDTVVKVFSAKPSRQVPQVFPPLQIPQARFAVNGENHNFHTANQRLQCFGDVIIPNPLDTFGSVQMPSSTDQTEALPLVVRKNSSEQSASGPATGGHHQPLHQSPLSATAGFTTPSFRHPFPLPLMAYPFQSPLGAPSGSFSGKDRASPESLDLTRDTTSLRTKMSSHHLSHHPCSPAHPPSTAEGLSLSLIKSECGDLQDMSDISPYSGSAMQEGLSPNHLKKAKLMFFYTRYPSSNMLKTYFSDVKFNRCITSQLIKWFSNFREFYYIQMEKYARQAINDGVTSTEELSITRDCELYRALNMHYNKANDFEVPERFLEVAQITLREFFNAIIAGKDVDPSWKKAIYKVICKLDSEVPEIFKSPNCLQELLHE
In the case of B1, the nuclear localisation of PΔN106 in COS-1 cells: percent of cells with the mutant principally in the nucleus on co-expression with RORγ (50% when expressed alone) (% of the cells) came to 90.

B2: Myc-Prox1 PΔC636 (domain or fragment)
chain: MPDHDSTALLSRQTKRRRVDIGVKRTVGTASAFFAKARATFFSAMNPQGSEQDVEYSVVQHADGEKSNVLRKLLKRANSYEDAMMPFPGATIISQLLKNNMNKNGGTEPSFQASGLSSTGSEVHQEDICSNSSRDSPPECLSPFGRPTMSQFDVDRLCDEHLRAKRARVENIIRGMSHSPSVALRGNENEREMAPQSVSPRESYRENKRKQKLPQQQQQSFQQLVSARKEQKREERRQLKQQLEDMQKQLRQLQEKFYQVYDSTDSENDEDGDLSEDSMRSEILDARAQDSVGRSDNEMCELDPGQFIDRARALIREQEMAENKPKREGSNKERDHGPNSLQPEGKHLAETLKQELNTAMSQVVDTVVKVFSAKPSRQVPQVFPPLQIPQARFAVNGENHNFHTANQRLQCFGDVIIPNPLDTFGSVQMPSSTDQTEALPLVVRKNSSEQSASGPATGGHHQPLHQSPLSATAGFTTPSFRHPFPLPLMAYPFQSPLGAPSGSFSGKDRASPESLDLTRDTTSLRTKMSSHHLSHHPCSPAHPPSTAEGLSLSLIKSECGDLQDMSDISPYSGSAMQEGLSPNHLKKAKLMFFYTRYPSSNMLKTYFSDVKFNRCITSQLIKWFSNFREFYYIQME
B2: the nuclear localisation of PΔC636 in COS-1 cells: percent of cells with the mutant predominantly in the nucleus on co-expression with RORγ (6% when expressed alone) (% of the cells) came out at 80.
